Source: paper PMC2761383, “Structural and functional characteristics of xenavidin, the first frog avidin from Xenopus tropicalis” (BMC Structural Biology, 2009)

What was measured:
[1] = biological target: xenavidin (Xenopus tropicalis); experiment: SEC; Superdex 200 10/300 GL, 50 mM sodium phosphate pH 7.0, 650 mM NaCl; samples with and without an excess of biotin
[2] = biological target: xenavidin (Xenopus tropicalis); experiment: crystal structure; sitting-drop vapour diffusion at 22°C, with and without D-biotin; space group R32, dimer in the asymmetric unit; 1.7 Å
[3] = biological target: xenavidin, acetylated in vitro (Xenopus tropicalis); experiment: SDS-PAGE thermostability assay; acetylated protein saturated with biotin, thermal treatment for 20 min in the presence of SDS and 2-mercaptoethanol, SDS-PAGE with Coomassie staining

Substance | stoichiometry N [1] | stoichiometry N [2] | stoichiometry N [3]
xenavidin (natural protein) | 4 | 4 | –
xenavidin, acetylated in vitro (natural protein) | – | – | 4
